Experimental data as given in patent EP4610277A1 (Daiichi Sankyo Company, Limited, dated 2025).

Tests used:
[1] = target: T1, recombinant human KIR3DS1/CD158e2 Fc chimera protein (4136-KR-050, R&D Systems) (human, UniProt Q14943 22-340, limits assumed); test: flow cytometry, KIR-Fc on scFv-K562 cells
T1 construct: Bought Fc chimera; also called soluble KIR3DS1; recombinant KIR3DS1

[2] = target: T2, recombinant KIR3DL1 (extracellular domain-Fc-Avi, in-house) (human); test: flow cytometry, KIR-Fc 0.1 µM on scFv-K562 cells
T2 construct: IL-2 signal peptide left out; also called soluble KIR3DL1
T2 sequence (chain, as listed by the source): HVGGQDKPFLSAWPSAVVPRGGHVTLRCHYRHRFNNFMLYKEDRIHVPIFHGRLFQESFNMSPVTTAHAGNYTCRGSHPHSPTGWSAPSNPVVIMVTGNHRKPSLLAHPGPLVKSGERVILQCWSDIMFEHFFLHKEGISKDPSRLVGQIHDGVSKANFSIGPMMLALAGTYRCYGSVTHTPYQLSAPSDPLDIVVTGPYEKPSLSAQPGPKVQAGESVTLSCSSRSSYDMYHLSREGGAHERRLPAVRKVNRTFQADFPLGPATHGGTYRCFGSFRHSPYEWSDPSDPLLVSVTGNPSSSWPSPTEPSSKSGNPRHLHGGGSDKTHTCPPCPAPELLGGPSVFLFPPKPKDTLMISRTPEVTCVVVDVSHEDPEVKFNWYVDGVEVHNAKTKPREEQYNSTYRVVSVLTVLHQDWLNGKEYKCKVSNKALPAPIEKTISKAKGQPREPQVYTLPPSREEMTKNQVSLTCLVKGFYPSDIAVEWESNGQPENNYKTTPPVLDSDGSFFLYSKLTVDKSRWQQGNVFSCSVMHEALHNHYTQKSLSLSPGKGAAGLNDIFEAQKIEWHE

T1 sequence (Q14943 22-340 limits assumed, change not shown): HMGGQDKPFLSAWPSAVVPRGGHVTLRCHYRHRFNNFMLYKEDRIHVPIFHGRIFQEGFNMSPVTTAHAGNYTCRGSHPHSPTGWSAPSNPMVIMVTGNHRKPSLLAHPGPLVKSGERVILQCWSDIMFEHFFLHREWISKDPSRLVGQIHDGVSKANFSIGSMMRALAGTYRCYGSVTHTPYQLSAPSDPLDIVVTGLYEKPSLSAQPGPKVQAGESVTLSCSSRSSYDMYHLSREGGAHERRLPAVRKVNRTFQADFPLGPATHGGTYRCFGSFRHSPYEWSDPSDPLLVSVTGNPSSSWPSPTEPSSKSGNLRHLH

binding result [1]: no binding (tested: 0.1 µM) | binding result [2]: binds
B1: membrane-type a3DL1-DS6 scFv (scFv)
scFv: DYKDDDDKGSGQMQLVQSGAEVKKPGESLKISCKGSGYSFTSYWIGWVRQMPGKGPEWMGIIYPGDSYTNYSPSFQGHVTISADKSISTAYLQWSSLKASDTAMYYCARLAPTVEDAFDIWGQGTLVTVSSGGGGSGGGGSGGGGSQSVLTQPPSVSEAPGQRVTISCTGSSSNIGAGYDVHWYQQLPGTAPKLLIYGNSNRPSGVPDRFSGSKSGTSASLAITGLQAEDEADYYCQSYDSSLSEEVFGTGTKVTVLALSNSIMYFSHFVPVFLPAKPTTTPAPRPPTPAPTIASQPLSLRPEACRPAAGGAVHTRGLDFACDIYIWAPLAGTCGVLLLSLVITLYCNH
notes: On K562 cells
